From patent publication US20210070833A1 (GI INNOVATION, published 2021)
One block for each binder: values may come before it.

Legend:
mouse IgE = molecular target: T1, mouse IgE (mouse, UniProt P06336 1-421); assay: cell-based or functional assay
T1 heavy (looked up): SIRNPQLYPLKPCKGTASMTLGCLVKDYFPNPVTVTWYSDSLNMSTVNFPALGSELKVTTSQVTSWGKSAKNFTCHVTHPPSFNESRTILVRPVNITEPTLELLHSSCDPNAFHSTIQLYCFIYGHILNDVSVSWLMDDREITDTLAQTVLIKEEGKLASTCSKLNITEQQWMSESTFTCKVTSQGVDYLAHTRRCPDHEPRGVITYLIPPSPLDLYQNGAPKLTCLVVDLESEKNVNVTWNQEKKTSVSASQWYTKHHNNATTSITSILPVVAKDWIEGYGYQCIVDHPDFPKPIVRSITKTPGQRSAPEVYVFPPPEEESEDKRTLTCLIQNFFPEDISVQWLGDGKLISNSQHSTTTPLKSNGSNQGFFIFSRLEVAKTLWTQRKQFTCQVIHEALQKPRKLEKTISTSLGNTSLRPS

IgE = molecular target: T2, IgE; assay: SPR (ProteOn XPR36), KD against omalizumab as reference; the same paragraph ties 69-fold to FcεRIαECD-Fc2ST
T2 construct: also called immunoglobulin E
Method: The experiments were conducted by identifying zero base using 25 mM NaOH as a regeneration buffer, and then repeating the above steps. Thereafter, a binding curve was identified using a protein binding analyzer (ProteOn XPR36, Bio-Rad Laboratories, Inc., USA).

human IgE = molecular target: T3, human IgE (human, UniProt P01854-1 1-428); assay: cell-based or functional assay
T3 heavy (looked up): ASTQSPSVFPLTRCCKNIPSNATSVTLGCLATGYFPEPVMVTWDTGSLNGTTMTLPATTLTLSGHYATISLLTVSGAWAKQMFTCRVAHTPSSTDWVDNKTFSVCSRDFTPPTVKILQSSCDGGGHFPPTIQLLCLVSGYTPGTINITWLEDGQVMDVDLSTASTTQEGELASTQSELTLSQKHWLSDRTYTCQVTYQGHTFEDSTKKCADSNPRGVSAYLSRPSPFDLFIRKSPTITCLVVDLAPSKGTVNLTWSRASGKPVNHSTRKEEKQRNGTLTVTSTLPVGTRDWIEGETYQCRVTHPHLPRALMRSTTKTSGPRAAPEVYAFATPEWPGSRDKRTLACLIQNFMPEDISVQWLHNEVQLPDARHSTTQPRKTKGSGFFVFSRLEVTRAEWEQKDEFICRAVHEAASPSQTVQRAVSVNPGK

FcγRI = molecular target: T4, FcγRI; assay: BLI (Octet RED384), FcγRI immobilised on AR2G biosensor, IgETRAP 0.25-4 µM in solution
T4 construct: not in the MOLECULES list; also called IgG receptor FcγRI; Fc gamma receptor I
T4 chain: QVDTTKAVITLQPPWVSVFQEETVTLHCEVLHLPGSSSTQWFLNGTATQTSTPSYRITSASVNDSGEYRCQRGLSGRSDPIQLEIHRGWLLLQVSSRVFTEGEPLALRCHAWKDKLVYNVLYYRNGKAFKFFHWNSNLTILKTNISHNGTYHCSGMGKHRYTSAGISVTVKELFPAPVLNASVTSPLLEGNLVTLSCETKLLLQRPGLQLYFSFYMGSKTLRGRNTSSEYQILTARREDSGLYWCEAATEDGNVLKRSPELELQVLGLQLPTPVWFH
Method: FcγRI, FcγRIIA, FcγRIIB, FcγRIIIA, and FcγRIIIB recombinant proteins (R & D Systems Inc., 5 μg/ml) were immobilized in 300 mM acetate buffer (pH 5) on the activated AR2G biosensor. As a running buffer, PBS containing 0.1% Tween-20 and 1% bovine serum was used. All experiments were carried out at 30° C. with a sample plate shaker at a rate of 1,000 rpm.

- mast cell inhibition ratio (β-hexosaminidase release, mouse bone marrow-derived mast cells) at 0.5 ug/mL (mouse IgE): ~49.4%
- mast cell inhibition ratio (β-hexosaminidase release, mouse bone marrow-derived mast cells) at 1 ug/mL (mouse IgE): ~99.4%
B1: FcεRIαECD-Fc2 (Fc fusion)
chain: VPQKPKVSLNPPWNRIFKGENVTLTCNGNNFFEVSSTKWFHNGSLSEETNSSLNIVNAKFEDSGEYKCQHQQVNESEPVYLEVFSDWLLLQASAEVVMEGQPLFLRCHGWRNWDVYKVIYYKDGEALKYWYENHNISITNATVEDSGTYYCTGKVWQLDYESEPLNITVIKAPREKYWLQRNTGRGGEEKKGSKEKEEQEERETKTPECPSHTQPLGVFLFPPKPKDTLMISRTPEVTCVVVDVSQEDPEVQFNWYVDGVEVHNAKTKPREEQFNSTYRVVSVLTVLHQDWLNGKEYKCKVSNKGLPSSIEKTISKAKGQPREPQVYTLPPSQEEMTKNQVSLTCLVKGFYPSDIAVEWESNGQPENNYKTTPPVLDSDGSFFLYSRLTVDKSRWQEGNVFSCSVMHEALHNHYTQKSLSLSLGK

- fold difference of KD against omalizumab (printed as 'higher') (IgE): 22 to 69 fold
- IC50 of mast cell inhibition (β-hexosaminidase release, human FcεRI-expressing mouse bone marrow-derived mast cells) (human IgE): ~0.0112 µg/mL
- inhibitory ability on mast cell activity, fold against Xolair (human IgE): 58 fold
- binding result (FcγRI): no binding (tested: 4 µM)
B2: FcεRIαECD-Fc2ST (Fc fusion)
chain: B1 chain
modifications: sialic acid added (co-expressed with α-2,6-sialic acid transferase)
notes: also called IgETRAP; FcεRIαECD-Fc2 + a2,6-ST
